Experimental data from publication PMC5969528.
Read-outs that look alike come from different tables or passages of the source.

Columns and labels:
[1] = molecular target: cytoplasmic dynein-1 heavy chain (mouse (endogenous in mouse brain)) (UniProt Q9JHU4); experiment: cryo-EM structure
[2] = molecular target: cytoplasmic dynein-1 heavy chain (mouse (endogenous in mouse brain)) (UniProt Q9JHU4); experiment: cryo-EM structure; remark: listed apart in the source

cytoplasmic dynein-1 heavy chain, Q9JHU4 1-4644
stoichiometry N [1]: 2
stoichiometry N [2]: 2
